These results are taken from the RNAGym collection of RNA variant scans (doi:10.1073/pnas.2313332121).

This sample holds only a part of the variants without activity.

The labels stand for the following.
B1: TPR 5TU (parent)
chain: GGAUCUUCUCGAUCUAACAAAAAAGACAAAUCUGCCACAAAGCUUGAGAGCAUCUUCGGAUGCAGAGGCGGCAGCCUUCGGUGGCGCGAUAGCGCCAACGUUCUCAACUAUGACACGCAAAACGCGUGCUCCGUUGAAUGGAGUUUAUCAUG

In this data set the parent is B1. In words: polymerase ribozyme fitness, log enrichment relative to wild type (log ratio); higher = more active; in vitro selection for triplet polymerase activity. In short, it runs like this:
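Fitness measures genotype enrichment against wild-type enrichment on a logarithmic scale, with inverse-variance-weighted averaging of replicates. The logarithm is base 2, and genotypes were kept only with ≥10 input reads and ≥1 read per output in Illumina sequencing. The sequenced libraries came from one triplicate in vitro selection round, including frozen incubation at −7 °C, of PCR-built, transcribed mutant libraries of each subunit of a heterodimeric triplet polymerase ribozyme.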
Consider A52G U102G G124A, for which the “polymerase ribozyme fitness (log ratio)” value is -3.08. The same measure for A52G G67U A142G: -3.52; for U53A G84C C99A U111A: no more than -4.2; for U53A C54A G65U G86U A91U: no more than -4.2. For the variant A52G G83U U101A A115U, the “polymerase ribozyme fitness (log ratio)” value was -3.39. The same measure for U53A G81C C87U C123A: -1.74; for A52U U53G U61A A91G U130G U144G: no more than -4.2; for A52G U56G G83A: -2.85.

In the case of A52G C96U A122U, the “polymerase ribozyme fitness (log ratio)” value was -0.85. Consider U53A G58C A150U, for which the “polymerase ribozyme fitness (log ratio)” value was 0.575. The same measure for U53A A97G A121U C125A: -1.26; for U53G U77G C129A A147C: no more than -4.2. On to U53A G83C C95U A97C G100A C116G, for which the “polymerase ribozyme fitness (log ratio)” value was no more than -4.2. The same measure for A52G U53A A89C C93U: -2.02; for U53A U61A U109G: -2.25; for U53G G80C: -4.15. The figure for U53C G83C C116G is -3.05; for A52U A91U U139G U144A it is no more than -4.2. Consider A52U C125U, for which the “polymerase ribozyme fitness (log ratio)” value was -1.42. The same measure for U53A G100U: -3.41.

Turning to A52G C87U G141A U148A, the “polymerase ribozyme fitness (log ratio)” value was no more than -4.2. As to A52U A150G, the “polymerase ribozyme fitness (log ratio)” value was -1.24. In the case of A52G G70C U78G C93G G141C, the “polymerase ribozyme fitness (log ratio)” value is no more than -4.2. The same measure for A52G U55A A91C A97U G112A A150U: no more than -4.2; for A52U G59C A91U: no more than -4.2. The figure for U53A G143C is -2.05; for A52G U53A C54U C93G G112U it is no more than -4.2; for U53A U55A G62C it is -2.35. Consider U53A U109G, for which the “polymerase ribozyme fitness (log ratio)” value was -0.777. The figure for U53A G58C C96U U135G is -3.98; for U53A G83C G94U A97G U101G U102G C116A G140U it is no more than -4.2; for U53A U148G it is -4.01. The figure for U53A G59C C76G C85U A89C A97C A107U G117U G133A U139G is no more than -4.2; for A52U A73U G92U it is -3.66; for U53G U55A U78A C93U A142C U148C it is no more than -4.2. The same measure for U53A C79A A150U: no more than -4.2. For U53A C69U A89G G94U C96U A115U U148G U151G, the “polymerase ribozyme fitness (log ratio)” value was no more than -4.2. The same measure for U53A A115G: -0.769. The same measure for U53A A115U: -2.87.

For the variant U53A G58U C95A U144A C149A, the “polymerase ribozyme fitness (log ratio)” value is no more than -4.2. As to U53A C75U, the “polymerase ribozyme fitness (log ratio)” value was -1.34. Regarding A52U G83A C118U A121C, the “polymerase ribozyme fitness (log ratio)” value is -2.33.

In the case of U53A G141U, the “polymerase ribozyme fitness (log ratio)” value stood at 0.504. The figure for U53A C57U G143C is -3.52; for A52U G92U C105A it is -3.93; for U53A C57G it is -2.09.

In the case of U53A G83A C114U, the “polymerase ribozyme fitness (log ratio)” value is -3.28.

Turning to U53A G88C, the “polymerase ribozyme fitness (log ratio)” value is no more than -4.2.

For U53A C75U G88C, the “polymerase ribozyme fitness (log ratio)” value is no more than -4.2. The same measure for U53A U78C U90G C96G: no more than -4.2; for U53A G92A: -3.87; for U53A C123U: -0.0861.

As for A52U A91U A115G C131U, the “polymerase ribozyme fitness (log ratio)” value is no more than -4.2. The figure for A52G G58U C87U is -2; for U53G A115C G143A it is -4.06; for A52G C93G G141C it is -3.74. The figure for U53A U144C U145G is -1.92; for U53A C118G U144C it is -1.81.

Take A52G G74C C96U U144G: the “polymerase ribozyme fitness (log ratio)” value was no more than -4.2.

U53A C54A A147C: the “polymerase ribozyme fitness (log ratio)” value is -2.75. The same measure for U53A U56A G70U C93U G141C: no more than -4.2. For the variant U53G G84U C96G, the “polymerase ribozyme fitness (log ratio)” value was no more than -4.2. Consider A52U U56A C79G C105A, for which the “polymerase ribozyme fitness (log ratio)” value was no more than -4.2. Turning to U53G G84A, the “polymerase ribozyme fitness (log ratio)” value is -2.52.

On to U53G G117C A137G, for which the “polymerase ribozyme fitness (log ratio)” value is -2.86. The figure for U53A G92U C103A is -2.78. The same measure for U53A C93A C105A A119G: no more than -4.2; for A52U G84A G143C: -3.92. The same measure for U53A C63U C69U A122U: -3.99; for U53A G59A G84U: -1.32.

On to A52G U55A G92U, for which the “polymerase ribozyme fitness (log ratio)” value is -0.803. In the case of U53C U56A A89U C93U G141U, the “polymerase ribozyme fitness (log ratio)” value is -1.74.

In the case of A52G C103U, the “polymerase ribozyme fitness (log ratio)” value is -1.06. The figure for A52G U56G C85A C131U A137G is -3.95; for U53A A106U it is -1.9; for U53A A122G U134A it is -3.02. The same measure for U53A C95A C125U: -1.7; for U53G G59A: -1.37. The same measure for U53A C57U A97G: -1.24; for U53G C95U: -3.07. Take U53A G117A: the “polymerase ribozyme fitness (log ratio)” value was -0.303.

Take U53A C87U: the “polymerase ribozyme fitness (log ratio)” value is -0.931. The figure for A52U G83A U90C A106U U127A is no more than -4.2; for U53A A137U it is no more than -4.2.
